Consider ten proteins from publication PMC6940849, “Structure-Based Redesign of a Self-Sufficient Flavin-Containing Monooxygenase towards Indigo Production” (International Journal of Molecular Sciences, 2019).

Substrate in this series: c1ccc2[nH]ccc2c1
The series can be described thus: purified protein. The format is biochemical, Methylophaga thalassica. The conditions noted are these: NADPH, indole up to 1.6 mM.

[1] abbreviates: listed as printed as WT, table title says *mFMO.

B1: *mFMO (PTDH-*mFMO; mFMO M15L/S23A) (Methylophaga thalassica; M15L/S23A/W319A) (protein)
chain: MATRIAILGAGPSGLAQLRAFQAAQEKGAEIPELVCFEKQADWGGQWNYTWRTGLDENGEPVHSSMYRYLWSNGPKECLEFADYTFDEHFGKPIASYPPREVLWDYIKGRVEKAGVRKYIRFNTAVRHVEFNEDSQTFTVTVQDHTTDTIYSEEFDYVVCCTGHFSTPYVPEFEGFEKFGGRILHAHDFRDALEFKDKTVLLVGSSYSAEDIGSQCYKYGAKKLISCYRTAPMGYKWPENWDERPNLVRVDTENAYFADGSSEKVDAIILCTGYIHHFPFLNDDLRLVTNNRLWPLNLYKGVVWEDNPKFFYIGMQDQAYSFNMFDAQAWYARDVIMGRLPLPSKEEMKADSMAWREKELTLVTAEEMYTYQGDYIQNLIDMTDYPSFDIPATNKTFLEWKHHKKENIMTFRDHSYRSLMTGTMAPKHHTPWIDALDDSLEAYLSDKSEIPVAKEA
notes: N-terminal fusion to phosphite dehydrogenase (PTDH, cofactor regeneration; pCRE3-mFMO), Ni-Sepharose purified from E. coli NEB10beta
As to B1, the Km came out at 900 µM and the kcat stood at 0.42 s⁻¹.

B2: *mFMO (PTDH-*mFMO; mFMO M15L/S23A) (Methylophaga thalassica; C78V/M15L/S23A) (protein)
chain: MATRIAILGAGPSGLAQLRAFQAAQEKGAEIPELVCFEKQADWGGQWNYTWRTGLDENGEPVHSSMYRYLWSNGPKEVLEFADYTFDEHFGKPIASYPPREVLWDYIKGRVEKAGVRKYIRFNTAVRHVEFNEDSQTFTVTVQDHTTDTIYSEEFDYVVCCTGHFSTPYVPEFEGFEKFGGRILHAHDFRDALEFKDKTVLLVGSSYSAEDIGSQCYKYGAKKLISCYRTAPMGYKWPENWDERPNLVRVDTENAYFADGSSEKVDAIILCTGYIHHFPFLNDDLRLVTNNRLWPLNLYKGVVWEDNPKFFYIGMQDQWYSFNMFDAQAWYARDVIMGRLPLPSKEEMKADSMAWREKELTLVTAEEMYTYQGDYIQNLIDMTDYPSFDIPATNKTFLEWKHHKKENIMTFRDHSYRSLMTGTMAPKHHTPWIDALDDSLEAYLSDKSEIPVAKEA
notes: as for B1
Turning to B2, the Km was 700 µM and the kcat came out at 1.04 s⁻¹.

B3: *mFMO (PTDH-*mFMO; mFMO M15L/S23A) (Methylophaga thalassica; M15L/S23A/W319A/Y207W) (protein)
chain: MATRIAILGAGPSGLAQLRAFQAAQEKGAEIPELVCFEKQADWGGQWNYTWRTGLDENGEPVHSSMYRYLWSNGPKECLEFADYTFDEHFGKPIASYPPREVLWDYIKGRVEKAGVRKYIRFNTAVRHVEFNEDSQTFTVTVQDHTTDTIYSEEFDYVVCCTGHFSTPYVPEFEGFEKFGGRILHAHDFRDALEFKDKTVLLVGSSWSAEDIGSQCYKYGAKKLISCYRTAPMGYKWPENWDERPNLVRVDTENAYFADGSSEKVDAIILCTGYIHHFPFLNDDLRLVTNNRLWPLNLYKGVVWEDNPKFFYIGMQDQAYSFNMFDAQAWYARDVIMGRLPLPSKEEMKADSMAWREKELTLVTAEEMYTYQGDYIQNLIDMTDYPSFDIPATNKTFLEWKHHKKENIMTFRDHSYRSLMTGTMAPKHHTPWIDALDDSLEAYLSDKSEIPVAKEA
notes: as for B1
Consider B3, for which the Michaelis-Menten constant (Km) stood at 800 µM and the kcat worked out at 0.8 s⁻¹.

B4: *mFMO (PTDH-*mFMO; mFMO M15L/S23A) (Methylophaga thalassica; C78A/M15L/S23A) (protein)
chain: MATRIAILGAGPSGLAQLRAFQAAQEKGAEIPELVCFEKQADWGGQWNYTWRTGLDENGEPVHSSMYRYLWSNGPKEALEFADYTFDEHFGKPIASYPPREVLWDYIKGRVEKAGVRKYIRFNTAVRHVEFNEDSQTFTVTVQDHTTDTIYSEEFDYVVCCTGHFSTPYVPEFEGFEKFGGRILHAHDFRDALEFKDKTVLLVGSSYSAEDIGSQCYKYGAKKLISCYRTAPMGYKWPENWDERPNLVRVDTENAYFADGSSEKVDAIILCTGYIHHFPFLNDDLRLVTNNRLWPLNLYKGVVWEDNPKFFYIGMQDQWYSFNMFDAQAWYARDVIMGRLPLPSKEEMKADSMAWREKELTLVTAEEMYTYQGDYIQNLIDMTDYPSFDIPATNKTFLEWKHHKKENIMTFRDHSYRSLMTGTMAPKHHTPWIDALDDSLEAYLSDKSEIPVAKEA
notes: as for B1
B4: the Michaelis constant (Km) was 400 µM and the kcat was 0.79 s⁻¹.

B5: *mFMO (PTDH-*mFMO; mFMO M15L/S23A) (Methylophaga thalassica; C78I/M15L/S23A/W319A/Y207W) (protein)
chain: MATRIAILGAGPSGLAQLRAFQAAQEKGAEIPELVCFEKQADWGGQWNYTWRTGLDENGEPVHSSMYRYLWSNGPKEILEFADYTFDEHFGKPIASYPPREVLWDYIKGRVEKAGVRKYIRFNTAVRHVEFNEDSQTFTVTVQDHTTDTIYSEEFDYVVCCTGHFSTPYVPEFEGFEKFGGRILHAHDFRDALEFKDKTVLLVGSSWSAEDIGSQCYKYGAKKLISCYRTAPMGYKWPENWDERPNLVRVDTENAYFADGSSEKVDAIILCTGYIHHFPFLNDDLRLVTNNRLWPLNLYKGVVWEDNPKFFYIGMQDQAYSFNMFDAQAWYARDVIMGRLPLPSKEEMKADSMAWREKELTLVTAEEMYTYQGDYIQNLIDMTDYPSFDIPATNKTFLEWKHHKKENIMTFRDHSYRSLMTGTMAPKHHTPWIDALDDSLEAYLSDKSEIPVAKEA
notes: as for B1
Take B5: the Km was determined as 800 µM and the kcat amounted to 0.93 s⁻¹.

B6: *mFMO (PTDH-*mFMO; mFMO M15L/S23A) (Methylophaga thalassica; M15L/S23A/W319F) (protein)
chain: MATRIAILGAGPSGLAQLRAFQAAQEKGAEIPELVCFEKQADWGGQWNYTWRTGLDENGEPVHSSMYRYLWSNGPKECLEFADYTFDEHFGKPIASYPPREVLWDYIKGRVEKAGVRKYIRFNTAVRHVEFNEDSQTFTVTVQDHTTDTIYSEEFDYVVCCTGHFSTPYVPEFEGFEKFGGRILHAHDFRDALEFKDKTVLLVGSSYSAEDIGSQCYKYGAKKLISCYRTAPMGYKWPENWDERPNLVRVDTENAYFADGSSEKVDAIILCTGYIHHFPFLNDDLRLVTNNRLWPLNLYKGVVWEDNPKFFYIGMQDQFYSFNMFDAQAWYARDVIMGRLPLPSKEEMKADSMAWREKELTLVTAEEMYTYQGDYIQNLIDMTDYPSFDIPATNKTFLEWKHHKKENIMTFRDHSYRSLMTGTMAPKHHTPWIDALDDSLEAYLSDKSEIPVAKEA
notes: as for B1
Take B6: the Km stood at 400 µM and the kcat amounted to 0.64 s⁻¹.

B7: *mFMO (PTDH-*mFMO; mFMO M15L/S23A) (Methylophaga thalassica; C78I/M15L/S23A) (protein)
chain: MATRIAILGAGPSGLAQLRAFQAAQEKGAEIPELVCFEKQADWGGQWNYTWRTGLDENGEPVHSSMYRYLWSNGPKEILEFADYTFDEHFGKPIASYPPREVLWDYIKGRVEKAGVRKYIRFNTAVRHVEFNEDSQTFTVTVQDHTTDTIYSEEFDYVVCCTGHFSTPYVPEFEGFEKFGGRILHAHDFRDALEFKDKTVLLVGSSYSAEDIGSQCYKYGAKKLISCYRTAPMGYKWPENWDERPNLVRVDTENAYFADGSSEKVDAIILCTGYIHHFPFLNDDLRLVTNNRLWPLNLYKGVVWEDNPKFFYIGMQDQWYSFNMFDAQAWYARDVIMGRLPLPSKEEMKADSMAWREKELTLVTAEEMYTYQGDYIQNLIDMTDYPSFDIPATNKTFLEWKHHKKENIMTFRDHSYRSLMTGTMAPKHHTPWIDALDDSLEAYLSDKSEIPVAKEA
notes: as for B1
On to B7, for which the Km worked out at 800 µM and the kcat turned out to be 1.28 s⁻¹.

B8: *mFMO (PTDH-*mFMO; mFMO M15L/S23A) (Methylophaga thalassica; C78L/M15L/S23A) (protein)
chain: MATRIAILGAGPSGLAQLRAFQAAQEKGAEIPELVCFEKQADWGGQWNYTWRTGLDENGEPVHSSMYRYLWSNGPKELLEFADYTFDEHFGKPIASYPPREVLWDYIKGRVEKAGVRKYIRFNTAVRHVEFNEDSQTFTVTVQDHTTDTIYSEEFDYVVCCTGHFSTPYVPEFEGFEKFGGRILHAHDFRDALEFKDKTVLLVGSSYSAEDIGSQCYKYGAKKLISCYRTAPMGYKWPENWDERPNLVRVDTENAYFADGSSEKVDAIILCTGYIHHFPFLNDDLRLVTNNRLWPLNLYKGVVWEDNPKFFYIGMQDQWYSFNMFDAQAWYARDVIMGRLPLPSKEEMKADSMAWREKELTLVTAEEMYTYQGDYIQNLIDMTDYPSFDIPATNKTFLEWKHHKKENIMTFRDHSYRSLMTGTMAPKHHTPWIDALDDSLEAYLSDKSEIPVAKEA
notes: as for B1
As to B8, the Km was 800 µM and the kcat was found to be 0.7 s⁻¹.

B9: *mFMO (PTDH-*mFMO; mFMO M15L/S23A) (Methylophaga thalassica; M15L/S23A) (protein)
chain: MATRIAILGAGPSGLAQLRAFQAAQEKGAEIPELVCFEKQADWGGQWNYTWRTGLDENGEPVHSSMYRYLWSNGPKECLEFADYTFDEHFGKPIASYPPREVLWDYIKGRVEKAGVRKYIRFNTAVRHVEFNEDSQTFTVTVQDHTTDTIYSEEFDYVVCCTGHFSTPYVPEFEGFEKFGGRILHAHDFRDALEFKDKTVLLVGSSYSAEDIGSQCYKYGAKKLISCYRTAPMGYKWPENWDERPNLVRVDTENAYFADGSSEKVDAIILCTGYIHHFPFLNDDLRLVTNNRLWPLNLYKGVVWEDNPKFFYIGMQDQWYSFNMFDAQAWYARDVIMGRLPLPSKEEMKADSMAWREKELTLVTAEEMYTYQGDYIQNLIDMTDYPSFDIPATNKTFLEWKHHKKENIMTFRDHSYRSLMTGTMAPKHHTPWIDALDDSLEAYLSDKSEIPVAKEA
notes: as for B1
On to B9, for which, under setting [1], the Km turned out to be 400 µM and the kcat is 0.85 s⁻¹.

B10: *mFMO (PTDH-*mFMO; mFMO M15L/S23A) (Methylophaga thalassica; M15L/S23A/Y207W) (protein)
chain: MATRIAILGAGPSGLAQLRAFQAAQEKGAEIPELVCFEKQADWGGQWNYTWRTGLDENGEPVHSSMYRYLWSNGPKECLEFADYTFDEHFGKPIASYPPREVLWDYIKGRVEKAGVRKYIRFNTAVRHVEFNEDSQTFTVTVQDHTTDTIYSEEFDYVVCCTGHFSTPYVPEFEGFEKFGGRILHAHDFRDALEFKDKTVLLVGSSWSAEDIGSQCYKYGAKKLISCYRTAPMGYKWPENWDERPNLVRVDTENAYFADGSSEKVDAIILCTGYIHHFPFLNDDLRLVTNNRLWPLNLYKGVVWEDNPKFFYIGMQDQWYSFNMFDAQAWYARDVIMGRLPLPSKEEMKADSMAWREKELTLVTAEEMYTYQGDYIQNLIDMTDYPSFDIPATNKTFLEWKHHKKENIMTFRDHSYRSLMTGTMAPKHHTPWIDALDDSLEAYLSDKSEIPVAKEA
notes: as for B1
For the protein B10, the Km was 100 µM and the kcat amounted to 0.31 s⁻¹.

As a reminder, the Km is the concentration of substrate that gives half-maximal velocity. Broadly, the kcat is the number of substrate molecules converted per active site and unit of time at saturation.
